Data reported in publication PMC12579237, “Development of antibody drug conjugates targeting epithelial membrane protein 2-highly expressed lung cancer” (Cell Death & Disease, 2025).

B1: FK002-exatecan (antibody, V domains shown)
VH: DVQLQESGPGLVKPSQSLSLTCSVTGYSITSGYYWNWIRQFPGNKLEWMGYIRYDGRNNYNPSLKNRISITRDTSKNQFFLKLNSVTTEDTATYYCARDFDYWGQGTTLTVSS
VL: DIVLTQSPASLAVSLGQRATISCRASESVDTYGNSFMHWYQQKPGQPPKLLIYRASNLESGIPARFSGSGSRTDFTLTINPVEADDVATYYCHQSNEDPDTFGGGTKLEIKR
modifications: exatecan conjugated by the T1000 (Mc-VA-PABC(PSAR1o)) linker to the fully reduced antibody; DAR approximately 8 per antibody; residues not stated | exatecan conjugated by the T1000 (Mc-VA-PABC(PSAR1o)) linker to the fully reduced antibody; DAR approximately 8 per antibody; residues not stated
B2: FK002 antibody (mouse mAb) (antibody, V domains shown)
VH: B1 VH
VL: DIVLTQSPASLAVSLGQRATISCRASESVDTYGNSFMHWYQQKPGQPPKLLIYRASNLESGIPARFSGSGSRTDFTLTINPVEADDVATYYCHQSNEDPDTFGGGTKLEIK
notes: V region of the printed chimeric heavy chain; mouse IgG heavy constant region; V region of the printed chimeric light chain; mouse light constant region; Flow cytometry, immunofluorescence, immunoblot and dot blot used the mouse mAb (anti-mouse secondary antibodies); also called FK002Ab; FK002 mAb; source: hybridoma, mouse ascites (from Abmart)

Tests used:
hEMP2-GFP [1] = target: T1, hEMP2-GFP (Homo sapiens, UniProt P54851)
T1 construct: epithelial membrane protein 2 (EMP2), human, fused to GFP; also called human EMP2-GFP; pCDH-EMP2-GFP; source: HEK293T, transfected, in lysate; A549, transfected, in cells; stably overexpressed (lentivirus) in A549, NCI-H520 and LLC cells

Purified EMP2 protein [2] = target: T2, Purified EMP2 protein (human, UniProt P54851 1-167); experiment: SPR
T2 chain: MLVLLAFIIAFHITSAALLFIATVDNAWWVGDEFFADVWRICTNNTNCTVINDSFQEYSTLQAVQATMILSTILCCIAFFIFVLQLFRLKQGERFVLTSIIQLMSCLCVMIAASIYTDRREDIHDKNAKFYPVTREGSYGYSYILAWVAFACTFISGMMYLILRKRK

Purified EMP2 protein [3] = target: T2, Purified EMP2 protein; experiment: SPR; Biacore 8K; EMP2 protein (approximately 12,000 RU) amine coupled; FK002Ab injected at 8 concentrations (0.02-1 μM), 20 μL/min, 100 s association, 180 s dissociation; PBS pH 7.2-7.4 with 1% dimethyl sulfoxide
hEMP2-GFP [4] = target: T1, hEMP2-GFP; experiment: immunostaining of cells or tissue; immunofluorescence of A549 cells transfected with hEMP2-GFP, stained with FK002; colocalization quantified; details: one partner purified
[5] = target: T3, epithelial membrane protein 2 (EMP2), endogenous in NCI-H226 cells (Homo sapiens, UniProt P54851); experiment: affinity purification with mass spectrometry; FK002 antibody incubated with NCI-H226 whole-cell lysate; immunoprecipitate silver stained, qualitative mass spectrometry; details: one partner purified
T3 construct: epithelial membrane protein 2 (EMP2), human, endogenous in NCI-H226 lung squamous carcinoma cells; On live cells in the flow cytometry; in whole-cell lysate in the immunoprecipitation; also called human EMP2; source: endogenous, NCI-H226 whole-cell lysate; endogenous, on NCI-H226 cells

[6] = target: T4, Peptide 4. KFYPVTREGS (129-138aa) (Homo sapiens); experiment: far-Western, overlay or dot blot; dot blot: 2.5 µL of each sample spotted on nitrocellulose (legend: 1 μg/spot), probed with FK002 antibody and HRP-conjugated mouse secondary antibody; details: both partners purified
T4 construct: human EMP2 residues 129-138; source: synthetic peptide (GenScript)
T4 chain: KFYPVTREGS

| Binder | EMP2 left on the cell surface, flow cytometry of EMP2-overexpressing NCI-H520 and NCI-A549 cells with or without FK002-exatecan (100 nM) for 48 h (hEMP2-GFP [1]) [%] | koff (Purified EMP2 protein [2]) [s⁻¹] | Kd (Purified EMP2 protein [3]) [nM] | binding result (hEMP2-GFP [4]) | binding result [5] | binding result [6] |
| --- | --- | --- | --- | --- | --- | --- |
| B1 | < 35 | – | – | – | – | – |
| B2 | – | 0.00328 | 40.3 | binds | binds | binds |
